From US6303339A, “DNA segments encoding autoimmune polypeptide epitopes of Ro/ss-A antigen” (Board of Regents, The University of Texas System, priority 1991, dated 2001)

Legend:
[1] = cited from earlier work
[2] = system: anti-Ro/SS-A antibodies (human autoimmune serum); assay: ELISA, immobilized peptide reacted with human autoimmune anti-Ro/SS-A serum; assay type: binding
Text: Human antisera. Anti-Ro/SS-A sera were selected by the presence of a single precipitin line in Ouchterlony analysis having complete identify with prototypic sera used in studies of Lieu et al. (17). The absence of antibodies to other nuclear antigens such as La/SS-B, U1 -RNP and Sm was also confirmed by ELISA. Monospecific anti-Sm and anti-La/SS-B human autoimmune sera were originally obtained from the laboratory of Dr. E. M. Tan (Scripps Research Institute, La Jolla, Calif.).
The native Ro/SS-A antigen (5 ug/ml) or synthetic peptide (10 ug/ml) in PBS was added to wells of a microtiter plate and incubated 16 hours at 4° C. The plates were washed with PBS-Tween and the remaining sites were coated with 1% BSA for 1 hour. After washing 3 times with PBS-Tween, sera diluted with 1% BSA, 0.5% bovine gamma globulin (BGG) in PBS-Tween were added and incubated for 2 hours. The plates were then washed 3 times with PBS-Tween. Peroxidase conjugated goat-anti-human IgG diluted 1:3000 in PBS-Tween containing 1% BSA and 0.5% BGG was added and incubated for 2 hours at room temperature. The plates were washed in a similar manner. […] The optical density was measured using a Titertek Multiskan brand ELISA plate reader.

Molecule | isoelectric point measured from the native purified protein [1] | binding to anti-Ro/SS-A serum in ELISA (in words) [2]
native purified protein: native 60 kD Ro protein purified from the human Wil-2 cell line | 4.67 | –
ribonuclease A (protein, UniProt P61823 27-150, looked up, control polypeptide in ELISA) Ribonuclease pancreatic: KETAAAKFERQHMDSSTSAASSSNYCNQMMKSRNLTKDRCKPVNTFVHESLADVQAVCSQKNVACKNGQTNCYQSYSTMSITDCRETGSSKYPNCAYKTTQANKHIIVACEGNPYVPVHFDASV | – | did not react
